From paper PMC5976931 come the findings set out here.

The experiment deals with B7-1 (mouse (endogenous in mouse podocytes)) (UniProt Q00609).
Chain of UniProt Q00609 (Q00609 38-306): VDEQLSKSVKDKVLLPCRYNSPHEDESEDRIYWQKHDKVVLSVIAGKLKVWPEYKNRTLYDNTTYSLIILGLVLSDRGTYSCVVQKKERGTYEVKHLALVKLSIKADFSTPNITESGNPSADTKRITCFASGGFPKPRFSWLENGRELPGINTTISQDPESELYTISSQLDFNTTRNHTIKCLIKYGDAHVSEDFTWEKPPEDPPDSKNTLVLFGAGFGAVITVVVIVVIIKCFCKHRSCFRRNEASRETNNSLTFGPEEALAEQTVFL

“CD28 (from UniProt P31041 20-218) (receptor)” gave a late apoptosis rate of LPS-treated podocytes cocultured with γδT cells (Group D), Annexin-PI, 48 hours of 10.2%; a late apoptosis rate of LPS-treated podocytes cocultured with γδT cells and treated with the CD28/B7-1 blocker CTLA4-Ig, 100 μg/ml (Group E), Annexin-PI, 48 hours of 6.43%; a phosphor-SRC immunofluorescence intensity in LPS-treated podocytes cocultured with γδT cells (Group D) of 142; a phosphor-SRC immunofluorescence intensity in LPS-treated podocytes cocultured with γδT cells and treated with the CD28/B7-1 blocker CTLA4-Ig, 100 μg/ml (Group E) of 24.
